# Tests used:
# human TNFα [1] = biological target: T1, human TNFα (human, UniProt P01375); experiment: SPR
# human TNFα [2] = biological target: T1, human TNFα; experiment: SPR; remark: listed apart in the source
# human TNFα [3] = biological target: T1, human TNFα; experiment: other, equilibrium analysis
# T1 sequence (P01375 77-233): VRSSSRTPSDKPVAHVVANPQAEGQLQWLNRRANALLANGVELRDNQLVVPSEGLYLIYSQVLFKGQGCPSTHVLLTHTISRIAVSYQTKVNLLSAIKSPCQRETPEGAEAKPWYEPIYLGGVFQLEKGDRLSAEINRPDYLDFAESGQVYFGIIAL
koff (human TNFα [1]),Kd (human TNFα [2]),Kd (human TNFα [3]),Binder
0.0137 s⁻¹,–,–,"2SD4 scFv (antibody, V domains shown) VH: QVQLVESGGGLVQPGRSLRLSCAASGFTFDDYAMHWVRQAPGKGLDWVSAITWNSGHIDYADSVEGRFAVSRDNAKNALYLQMNSLRPEDTAVYYCTKASYLSTSSSLDNWGQGTLVTVSS VL: DIQMTQSPSSLSASIGDRVTITCRASQGIRNYLAWYQQKPGKAPKLLIYAASTLQSGVPSRFSGSGSGTDFTLTISSLQPEDVATYYCQKYNSAPYAFGQGTKVEIK"
–,20 nM,0.48 nM,"2SD4 IgG4 (antibody, V domains shown) VH: QVQLVESGGGLVQPGRSLRLSCAASGFTFDDYAMHWVRQAPGKGLDWVSAITWNSGHIDYADSVEGRFAVSRDNAKNALYLQMNSLRPEDTAVYYCTKASYLSTSSSLDNWGQGTLVTVSS VL: DIQMTQSPSSLSASIGDRVTITCRASQGIRNYLAWYQQKPGKAPKLLIYAASTLQSGVPSRFSGSGSGTDFTLTISSLQPEDVATYYCQKYNSAPYAFGQGTKVEIK"

# Source: patent publication US20120219564 (published 2012)
